In patent US20240166755A1, “CHIMERIC ANTIGEN RECEPTORS TARGETING CANCER” (University of Southern California, priority 2016, published 2024):
“Also recorded” adds a separate entry of the source.

Columns and labels:
[1] = test system: HEL cells stably expressing GLuc; test: GLuc cell death assay, HEL-GLuc target cells; settings: for killing of HEL-GLuc cells: CAR-expressing PBMC, 4 h, versus uninfected PBMC; for GLuc activity (lysis of target cells): T cells, puromycin selected, E:T 10:1, 4 hours
Description: The blood samples to isolate Peripheral blood mononuclear cells (PBMCs) were obtained from healthy de-identified adult donors. PBMC were isolated from buffy coats by Ficoll-Hypaque gradient centrifugation and re-suspended in XVIVO medium (Lonza) supplanted with 10 ng/ml soluble anti-CD3, 10 ng/ml soluble anti-CD28 and 100 IU recombinant human-IL2. […] The PBMC expressing the indicated CARs and uninfected PBMC were co-cultured with HEL-GLuc target cells for 4 h and lysis of target cells measured by the single-step homogenous GLuc assay by injecting 0.5× CTZ assay buffer as described above.
Cells were selected with puromycin and expanded.
Cells were subsequently co-cultured overnight with HEL.92.1.7 cells that had been engineered to express GLuc.

RAJI-MPL cells = test: Jurkat-NFAT-EGFP reporter assay, co-culture with RAJI-MPL or RAJI-vector cells (Table 25); format: cell-based, human; settings: RAJI-MPL cells compared with RAJI-vector cells
Text: (§1) Cells were subsequently co-cultured with MPL-expressing HEL.92.1.7 (HEL) cells. […] CAR construct with HEL cells. The experiment was repeated by co-culturing the Jurkat-NFAT-EGFP cells with either RAJI cells, which have weak MPL expression, or with RAJI-MPL cells that were engineered to ectopically express human MPL receptor.

[2] = test system: MPL-expressing HEL.92.1.7 (HEL) cells; test: Jurkat-NFAT-EGFP reporter assay, co-culture with HEL cells (Table 25); format: cell-based, human; settings: FACS
Text: as §1

[3] = test system: Jurkat cells stably expressing MPL and GLuc; test: GLuc cell death assay, Jurkat-MPL-GLuc target cells; settings: T cells, puromycin selected, E:T 10:1, 4 hours
[4] = test system: target cells expressing their respective target antigen; test: Jurkat-NFAT-GFP assay, co-culture with target cells expressing the respective target antigen (Table 28); settings: Jurkat-NFAT-GFP cells expressing the CAR; cell line(s) giving greater % GFP positive cells than parental
[5] = test system: RAJI cells stably expressing GLuc; test: GLuc cell death assay, RAJI-GLuc target cells
Text: Cells were left unselected or selected with puromycin and expanded.

B1: CD8SP-MPL-161-(vL-vH)-Myc-BBz-T2A-PAC(021015-R07): CAR targeting MPL: 161 scFv, Myc tag, CD8 hinge/TM, 41BB, CD3z, T2A, puromycin resistance (protein)
chain: MALPVTALLLPLALLLHAARPDDIQMTQSSSSFSVSLGDRVTITCMASEDIYIRLAWYQQKPGNAPRLLISAATSLETGVPSRFSGSGSGKDYTLSITSLQTEDVGTYYCQQYWSSPWTFGGGTKLEINGGGGSGGGGSGGGGSDVQLQESGPGLVKPSQSLSLTCTVTGYSITSDYTWNWIRQFPGNKLEWMGYITYSGSTSYNPSLKSRNSITRDTSKNQFFLQLNSVTTEDTATYYCARLGRRYTMDYWGQGTSVTVSSTREQKLISEEDLAKPTTTPAPRPPTPAPTIASQPLSLRPEACRPAAGGAVHTRGLDFACDIYIWAPLAGTCGVLLLSLVITLYCKRGRKKLLYIFKQPFMRPVQTTQEEDGCSCRFPEEEEGGCELRVKFSRSADAPAYQQGQNQLYNELNLGRREEYDVLDKRRGRDPEMGGKPRRKNPQEGLYNELQKDKMAEAYSEIGMKGERRRGKGHDGLYQGLSTATKDTYDALHMQALPPRSSGSGEGRGSLLTCGDVEENPGPHMTEYKPTVRLATRDDVPRAVRTLAAAFADYPATRHTVDPDRHIERVTELQELFLTRVGLDIGKVWVADDGAAVAVWTTPESVEAGAVFAEIGPRMAELSGSRLAAQQQMEGLLAPHRPKEPAWFLATVGVSPDHQGKGLGSAVVLPGVEAAERAGVPAFLETSAPRNLPFYERLGFTVTADVEVPEGPRTWCMTRKPGA
modifications: listed as DNA
notes: CAR targeting MPL: 161 scFv, Myc tag, CD8 hinge/TM, 41BB, CD3z, T2A, puromycin resistance
killing of HEL-GLuc cells [1]: increased killing | EGFP expression (NFAT-EGFP reporter) (RAJI-MPL cells): strongest | EGFP expression (NFAT-EGFP reporter) [2]: strongest

B2: CD8SP-175-(vL-vH)-Myc-CD28z-T2A-PAC(031615-Q04): CAR construct targeting MPL, 175 scFv, CD28 costimulatory domain (protein)
chain: MALPVTALLLPLALLLHAARPDQIVLTQSPAIMSASPGEKVTISCSASSSVSYMYWYQQKPGSSPKPWIYRTSNLASGVPARFSGSGSGTSYSLTISNMEAEDAAAYYCQQYHSYPTTFGGGTKLEVKGGGGSGGGGSGGGGSEVQLVESGGGLVQPKGSLKLSCAASGFSFNTYAMNWVRQAPGKGLEWIAHIRSKSNNFATYYADSVKDRFSISRDASENILFLQMNNLKTEDTAMYYCVRQGGDFPMDYWGQGTSVTVSSTREQKLISEEDLKIEVMYPPPYLDNEKSNGTIIHVKGKHLCPSPLFPGPSKPFWVLVVVGGVLACYSLLVTVAFIIFWVRSKRSRLLHSDYMNMTPRRPGPTRKHYQPYAPPRDFAAYRSRVKFSRSADAPAYQQGQNQLYNELNLGRREEYDVLDKRRGRDPEMGGKPRRKNPQEGLYNELQKDKMAEAYSEIGMKGERRRGKGHDGLYQGLSTATKDTYDALHMQALPPRSSGSGEGRGSLLTCGDVEENPGPHMTEYKPTVRLATRDDVPRAVRTLAAAFADYPATRHTVDPDRHIERVTELQELFLTRVGLDIGKVWVADDGAAVAVWTTPESVEAGAVFAEIGPRMAELSGSRLAAQQQMEGLLAPHRPKEPAWFLATVGVSPDHQGKGLGSAVVLPGVEAAERAGVPAFLETSAPRNLPFYERLGFTVTADVEVPEGPRTWCMTRKPGA
modifications: listed as DNA
notes: CAR construct targeting MPL, 175 scFv, CD28 costimulatory domain
GLuc activity (lysis of target cells) [3]: stronger | killing of HEL-GLuc cells [1]: increased killing | GLuc activity (lysis of target cells) [1]: stronger | EGFP expression (NFAT-EGFP reporter) (RAJI-MPL cells): strongest | EGFP expression (NFAT-EGFP reporter) [2]: strongest

B3: CD8SP-CD324-hSC10-17-(vL-vH)-Myc-BBz-T2A-PAC(052516-A07)[SEQ ID NO: 1555] (protein)
chain: MALPVTALLLPLALLLHAARPDVVMTQSPLSLPVTLGQPASISCRSSQSIVHSDGNTYLEWYQQRPGQSPRRLIYKVSNRFSGVPDRFSGSGSGTDFTLKISRVEAEDVGVYYCFQGSHAPWTFGGGTKVEIKGGGGSGGGGSGGGGSEVQLVESGGGLVQPGGSLRLSCAASGFTFSSYGMHWVRQAPGKGLEWVAYITTRSSTIYYADSVKGRFTISRDNAKNSLYLQMNSLRAEDTAVYYCTREPLTGYYAMDYWGQGTSVTVSSTREQKLISEEDLAKPTTTPAPRPPTPAPTIASQPLSLRPEACRPAAGGAVHTRGLDFACDIYIWAPLAGTCGVLLLSLVITLYCKRGRKKLLYIFKQPFMRPVQTTQEEDGCSCRFPEEEEGGCELRVKFSRSADAPAYQQGQNQLYNELNLGRREEYDVLDKRRGRDPEMGGKPRRKNPQEGLYNELQKDKMAEAYSEIGMKGERRRGKGHDGLYQGLSTATKDTYDALHMQALPPRSSGSGEGRGSLLTCGDVEENPGPHMTEYKPTVRLATRDDVPRAVRTLAAAFADYPATRHTVDPDRHIERVTELQELFLTRVGLDIGKVWVADDGAAVAVWTTPESVEAGAVFAEIGPRMAELSGSRLAAQQQMEGLLAPHRPKEPAWFLATVGVSPDHQGKGLGSAVVLPGVEAAERAGVPAFLETSAPRNLPFYERLGFTVTADVEVPEGPRTWCMTRKPGA
modifications: listed as DNA
Positive Cell Line on co-culture assay [4]: MDAMB-231

B4: CD8SP-DLL3-hSC16-13-(vL-vH)-Myc-BBz-T2A-PAC(052516-D07)[SEQ ID NO: 1584] (protein)
chain: MALPVTALLLPLALLLHAARPDIQMTQSPSSLSASVGDRVTITCSASSSVSYMYWYQQKPGKAPKLLIYLTSNLASGVPSRFSGSGSGTDFTLTISSLQPEDFATYYCQQWRSNPFTFGQGTKLEIKRGGGGSGGGGSGGGGSQITLKESGPTLVKPTQTLTLTCTFSGFSLSTSGMGVGWIRQPPGKALEWLAHIWWDDVKRYSPSLKSRLTITKDTSKNQVVLTMTNMDPVDTATYYCARIVSFDNDVVSAMDYWGQGTLVTVSSTREQKLISEEDLAKPTTTPAPRPPTPAPTIASQPLSLRPEACRPAAGGAVHTRGLDFACDIYIWAPLAGTCGVLLLSLVITLYCKRGRKKLLYIFKQPFMRPVQTTQEEDGCSCRFPEEEEGGCELRVKFSRSADAPAYQQGQNQLYNELNLGRREEYDVLDKRRGRDPEMGGKPRRKNPQEGLYNELQKDKMAEAYSEIGMKGERRRGKGHDGLYQGLSTATKDTYDALHMQALPPRSSGSGEGRGSLLTCGDVEENPGPHMTEYKPTVRLATRDDVPRAVRTLAAAFADYPATRHTVDPDRHIERVTELQELFLTRVGLDIGKVWVADDGAAVAVWTTPESVEAGAVFAEIGPRMAELSGSRLAAQQQMEGLLAPHRPKEPAWFLATVGVSPDHQGKGLGSAVVLPGVEAAERAGVPAFLETSAPRNLPFYERLGFTVTADVEVPEGPRTWCMTRKPGA
modifications: listed as DNA
Positive Cell Line on co-culture assay [4]: LAN5, SKMEL31,; also recorded: SKMEL317

B5: CD8SP-161-(vL-vH)-Myc-CD28z-T2A-PAC(021715-Z07): CAR targeting MPL: 161 scFv with CD28 hinge, transmembrane and cytosolic domains and CD3z (protein)
chain: MALPVTALLLPLALLLHAARPDDIQMTQSSSSFSVSLGDRVTITCMASEDIYIRLAWYQQKPGNAPRLLISAATSLETGVPSRFSGSGSGKDYTLSITSLQTEDVGTYYCQQYWSSPWTFGGGTKLEINGGGGSGGGGSGGGGSDVQLQESGPGLVKPSQSLSLTCTVTGYSITSDYTWNWIRQFPGNKLEWMGYITYSGSTSYNPSLKSRNSITRDTSKNQFFLQLNSVTTEDTATYYCARLGRRYTMDYWGQGTSVTVSSTREQKLISEEDLKIEVMYPPPYLDNEKSNGTIIHVKGKHLCPSPLFPGPSKPFWVLVVVGGVLACYSLLVTVAFIIFWVRSKRSRLLHSDYMNMTPRRPGPTRKHYQPYAPPRDFAAYRSRVKFSRSADAPAYQQGQNQLYNELNLGRREEYDVLDKRRGRDPEMGGKPRRKNPQEGLYNELQKDKMAEAYSEIGMKGERRRGKGHDGLYQGLSTATKDTYDALHMQALPPRSSGSGEGRGSLLTCGDVEENPGPHMTEYKPTVRLATRDDVPRAVRTLAAAFADYPATRHTVDPDRHIERVTELQELFLTRVGLDIGKVWVADDGAAVAVWTTPESVEAGAVFAEIGPRMAELSGSRLAAQQQMEGLLAPHRPKEPAWFLATVGVSPDHQGKGLGSAVVLPGVEAAERAGVPAFLETSAPRNLPFYERLGFTVTADVEVPEGPRTWCMTRKPGA
modifications: listed as DNA
notes: CAR targeting MPL: 161 scFv with CD28 hinge, transmembrane and cytosolic domains and CD3z
GLuc activity (lysis of target cells) [3]: stronger | GLuc activity (lysis of target cells) [1]: stronger | EGFP expression (NFAT-EGFP reporter) (RAJI-MPL cells): strongest | EGFP expression (NFAT-EGFP reporter) [2]: strongest

B6: CD8SP-CD19Bu12-(vL-vH)-Myc-BBz-T2A-PAC(082815-P08): CD19 CAR with scFv from humanized CD19 antibody huCD19-Bu12, 41BB and CD3z (protein)
chain: MALPVTALLLPLALLLHAARPDEIVLTQSPATLSLSPGERATLSCSASSSVSYMHWYQQKPGQAPRLLIYDTSKLASGIPARFSGSGSGTDFTLTISSLEPEDVAVYYCFQGSVYPFTFGQGTKLEIKRGGGGSGGGGSGGGGSQVQLQESGPGLVKPSQTLSLTCTVSGGSISTSGMGVGWIRQHPGKGLEWIGHIWWDDDKRYNPALKSRVTISVDTSKNQFSLKLSSVTAADTAVYYCARMELWSYYFDYWGQGTLVTVSSTREQKLISEEDLAKPTTTPAPRPPTPAPTIASQPLSLRPEACRPAAGGAVHTRGLDFACDIYIWAPLAGTCGVLLLSLVITLYCKRGRKKLLYIFKQPFMRPVQTTQEEDGCSCRFPEEEEGGCELRVKFSRSADAPAYQQGQNQLYNELNLGRREEYDVLDKRRGRDPEMGGKPRRKNPQEGLYNELQKDKMAEAYSEIGMKGERRRGKGHDGLYQGLSTATKDTYDALHMQALPPRSSGSGEGRGSLLTCGDVEENPGPHMTEYKPTVRLATRDDVPRAVRTLAAAFADYPATRHTVDPDRHIERVTELQELFLTRVGLDIGKVWVADDGAAVAVWTTPESVEAGAVFAEIGPRMAELSGSRLAAQQQMEGLLAPHRPKEPAWFLATVGVSPDHQGKGLGSAVVLPGVEAAERAGVPAFLETSAPRNLPFYERLGFTVTADVEVPEGPRTWCMTRKPGA
modifications: listed as DNA
cell death (increase in Gluc activity) ([5]; RAJI-pLenti-Gluc cells incubated with the CAR-T cells): significant induction of cell death | GLuc activity (lysis of target cells) ([5]; T cells with or without puromycin selection, E:T 10:1, 96 hours): increase in GLuc activity
